From the domain aggregation screens of Martell et al. (2025) come the findings set out here.
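Further: 20 min heating vs room temperature control held 20 min.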

The data set in a line: soluble fraction after stress (log2 fold change); higher = more stays soluble; pooled small domains, quantitative proteomics. As to conditions: stress: 75 degC.
With “HMNDVEAIDDALKDLHKVSPDLAALVEMKFFGGMTEPEISEILGVSERTVRREWEKARAALLVLLE”, the “soluble fraction (log2)” value was -1.63. As to “HMNDVHELPYSSFIEMVERGHVISVTVKHINIEFESTKNENYRTIAPQAMTPPYLELLLKNKDSVKVTFLP”, the “soluble fraction (log2)” value is -1.98. The value for “HMNDVLVGAIPESASGSRLDKVMPSVFPPYSRSQLQVWLKQGRILMGNGIPSPRLIVSGGEVLSLVVPELP” was -1.02; that for “HMNEDFSEIIAAVKKFAVDNLSLSTLSDEELEEQIKTITDNMIGNRYVSIKNRVDIAQQVFSSIR” was -0.291; that for “HMNEMEFAQRLRQFRKAKNLTQQELADRLGVSNKSVSRWESGSYPDVGTLVALARALGVTVDELLDPKA” was -0.00291.

With “HMNEMEWVAKLIDQLPERERMILQLREIEQYEFDQIASLMEIPEGTVRVYLSRIRKKIKKQFIEIQSH”, the “soluble fraction (log2)” value amounted to 0.0404. The result for “HMNENFPYRLKEMVVVQSRTWPGINKPGGVGQVMKINPEAGTVNVKYVLGGSEKNIELKYVTSNDLNSK” reads -0.489; that for “HMNENYNLSKREKEVLDLLVNGKSYKVIATELAISYETVHSHIKKIYHKLHVSSIGEAVSKTIKQKIL”, -3.11; that for “HMNEPITIALREAEEAANKILNEGVHSVELSPQNGYVRRLQHELIARYGLTSASRGSDPSRRVSVGAN”, -0.295. Regarding “HMNEQKVSSLLTPRQLAFIDEYLIDFNGAQAAIRAGYSHKTAGPQAARLLVNVNISRMIAERIEARNK”, the “soluble fraction (log2)” value is -2.5.

As for “HMNEQVAVVSGSQVNVRSGPGTTSAVVGQVSKGDNLPVLNQSGDWYQIKLPGGNAGWVAGWLVSLRPTT”, the “soluble fraction (log2)” value stood at 0.0105. The result for “HMNESPVLAVLTPTERKVASLVAEGLTNQAIAARMILAEGTVKNHVSTLLHKLQAPDRTALALTLYKAFQ” reads -1.3; that for “HMNETRVDQAADLLLALLEKEPKSAAEILDEFEQAGFSKSGLYRAKDALGVVSIRKEGRWVWSLPHSLD”, 0.438; that for “HMNEYIVSAEQEGMRLDVFLTEQMEGSRSYIQSLIKGGHVTVGDKVGKANLRLTPDTVIHVEIPEPE”, 0.0133. For “HMNEYLPEAVQKLLEVMEYDIPYTSNELMERLGLKAKEGFRRNYLHPAMEMKLIQMTIPDKPNSRNQRYLR”, the “soluble fraction (log2)” value is -2.13. Consider “HMNFHLEHHIAELLYRSIRGELSDFERQELNQWRSDSPMHETLFMRLQDDEYIDEELGVFIK”, for which the “soluble fraction (log2)” value was -2.76. Consider “HMNFKNMIDSLSGILFKKDPSAAIIDIGGVRLKVFITVGSYEQLPAKGEQVEILTYLHVKEDILNLYG”, for which the “soluble fraction (log2)” value is -1.85. In the case of “HMNFMDGFQSFFQESGAMNRPMTADVVSYRLPDGTVQQGNSTMRGLMDQYLKSIGQSPTTGVP”, the “soluble fraction (log2)” value worked out at 0.0171. The result for “HMNFRESVLAVFENSKQKYLDFDEIAKRLGLTRGFDRQALASMLNELTRNDEIVFTKRNKYTLPEN” reads -0.524. Regarding “HMNGAVAEQARKQLMAALKASEFIAEEKLDEWLDALALPEDKRTAIVDAVDELDYEEAISELEN”, the “soluble fraction (log2)” value is 0.429.

With “HMNGDYFEYRYAVNGSRSTPPSLSKTSRNPSGWSTTVPTVGNLQYLWFTVAKINGETNSLIQNWSTPARQT”, the “soluble fraction (log2)” value is -1.88. “HMNGEAQTMYVTARTLNVRKGPGTSYAKAGTLSRGTAVQVVGFSGNWAKLSNGYYVSTSYLAKI”: the “soluble fraction (log2)” value is -4.25.

As for “HMNGKWKLRIIKELLHSNIRFGQILKNIPDISPKVLSQQLKEMEEDGIIERIVISEMPPNVEYVLTDMGE”, the “soluble fraction (log2)” value is -1.66. Take “HMNGLNISYRMDGENVVETIVFPDATMIRTIAPNGVMTIKTIEDGSVSTSELKADYKLYKKIYESQY”: the “soluble fraction (log2)” value is -0.748. Consider “HMNGSVLVTGGSVWIRAGASKETDGLGIVHKGDVLKRSGSDASGWRGVVYEGQNAFISAKYSSI”, for which the “soluble fraction (log2)” value was -0.89. Take “HMNGTEAIRRYIDQFASKHATTPRMLKLNERKQLIQELKNNGLLEIKKAVETVAQHLGISRASAYLYVKE”: the “soluble fraction (log2)” value was -1.52.

As for “HMNGVPDMSPVPEGARNSTLHAWAFGRLKNHPDNETGIREDLFRRGHASGLQDAELDQIWKSIKRTL”, the “soluble fraction (log2)” value stood at 0.00545. The result for “HMNGVSNETLIQKSALYEELNQPDLALKMINTALKKDSVNIEILHRLVTLLMSQEKNEEAILYNQKIIDH” reads 0.0902. Turning to “HMNHSITLTERKNLLITGVKKIENFDKEEFLIETTMGFLVVKGDGLELIKLDTISGNVSIKGIVNGFTYID”, the “soluble fraction (log2)” value came out at 0.15. The result for “HMNIAAVIGQTGVLQDDLKAGEQGTVKADNKLWTAVLAEGEEAVKKEERVDIVAVEGVKLIVRRNI” reads 0.663.

For “HMNIDEIFLTKNEIYFSFEYQKKSQLDRYSKIISLDHRIDKNTAYAYANKKQFLNFINLNIDYKIIDNSF”, the “soluble fraction (log2)” value is -2.87. Regarding “HMNIDEIIGKKAVVIESIDNLQGTGKVRYQGMEWTARAEEENDRIEKDAEVEIIAVKGVKLIVKMK”, the “soluble fraction (log2)” value is -0.384. Take “HMNIDNTWQPSEDVVEILTRSGINEDFINELIPEFIVYWTERPGTLVSYNSKFIEHVRLKWAQHSAEI”: the “soluble fraction (log2)” value is -0.375. On to “HMNIDVAAEKQQLGPNADQIVKGTVTWMQGLVAKGIWSETDFEEGKIFTATADGINAINKIRRYYGEQT”, for which the “soluble fraction (log2)” value was 0.0956. For “HMNIEDFKDKVKELKQYTYQELVEDVKLKTDRADVILPASKIYLEAMQQAKVDSIIVPKVGLAEGVAR”, the “soluble fraction (log2)” value is -0.012. As for “HMNIEEQVVAEVLVKDFMKQLTPRDIHILELRKNGYTYQEIAGQLGYHTHSAVKKRVDRLAEQWLAYTQGH”, the “soluble fraction (log2)” value was -2.26. The result for “HMNIFAHQIGKLRTERHLSQTDVAKRLYVSRQAVSKWENGDAEPSLDNLIALAKLFNVSLDNLITGQ” reads -1.78.

For the sequence “HMNIGVEQIEQMERGALITLWQELIDKPLPRHMSIVFLRQVLAFEVQSKQNGGLPRGFITLLNKQAD”, the “soluble fraction (log2)” value is -0.826. Regarding “HMNIKITKSKNSEHYSIIYNTKINGKRTSKIYENIGNFEKLKLRAGEQEPIEWLKNYVSELNKKQKEDT”, the “soluble fraction (log2)” value was determined as 0.11. Take “HMNIKYDFPTNSPLEMMRNLFDSNSQIINDLKDGFAMANSLNEQGLANFFAERIDKHQFWSWQLSASL”: the “soluble fraction (log2)” value is -0.201.

Take “HMNILDPTVMKNILDKNHEEFIAIYESAPLGQKTIINSMVFDKRLNGENVDANILMYLQNKTNIDYINIEP”: the “soluble fraction (log2)” value was -0.536. Take “HMNILNYIIENENQEVRVDKFLSDTIEDMSRSSVASIIEDGGLLVNDKLQNKKYKLKIGDKVQFTVPDPV”: the “soluble fraction (log2)” value came to 0.0982. The value for “HMNILVAISDTGEIWINKRRVDARAVQANIERLHAENPQGTVVIQADKQATTETLIKVMDASRAAGVFDVS” was -0.691; that for “HMNINLDINTYTVKELEKLLKLEVPYSDNNVFEKKNLMVKMIQTSTIAETKKEELYIFLDNIYNRLTNNLE” was -1.59.

In the case of “HMNISLGALVTITDQKGRSHTVTLESGKQFFTNHGSINHDEIIKAGEGGVVASSSGMLYTIFTP”, the “soluble fraction (log2)” value is -0.924. Consider “HMNISRESLIGQILATLNKNPEEGFNYKQIAKRLNITDSPGRQMISDLLRELSKHGSLQEISHGKYKIKV”, for which the “soluble fraction (log2)” value is -0.237. Regarding “HMNITHEINVKSKSKIDFLENNKNLAQFFLTKNPNQFNYNLVFSDKSELNIIKEKIESHKDIEDIDIRYG”, the “soluble fraction (log2)” value is -0.0863. The value for “HMNIVINVDTPTFEQMKATYQAPGTLPAGASFHAKLKGVTVTGYTKSHKVMFQGALANQEAARWQ” was -1.88. For “HMNIYFNIEDAVANAVVENGKMSAAIYEKNVDTGEVAKLAEVSMPVMGGNINITKTLLTKALISQLP”, the “soluble fraction (log2)” value is -0.71.

Consider “HMNKAYLTVADMKKDKSLKNGDVVRTLGYYGYNDGDGAVYQIKDSHPEDYHIRLDNGLDAEQINY”, for which the “soluble fraction (log2)” value was found to be 0.185. Regarding “HMNKEHINLDSSKFLSLLNKTKISMSNDETRHYLNGIYIHPTVSNKSSYLTGVATDSHRLSSSSIPVD”, the “soluble fraction (log2)” value was -0.366. As for “HMNKMIIELGEKLKALRTENHLRQDQVARLVNVEKSSISMYETGMRQPSYTTLVRLADVFNVTTDYLLGRK”, the “soluble fraction (log2)” value is -2.37. For “HMNKPTSMYKLRLLLKHYHAGASKRWMADVLDISRSTLNVYLARIESLNLAFEEWEALSDLEVSRLLINP”, the “soluble fraction (log2)” value was -3.22. Turning to “HMNKVAQFYRELVSTLSERLRNGERDIDALVEQARVRISQSGELTQSEIENVIRAVRRDLEEFALSYEE”, the “soluble fraction (log2)” value is -0.0274. Turning to “HMNLAISAYQQLKSDIIRGVYAPGEKLLMSRLKVRYGLGIGPMREALSQLVSEHLVTAASQRGYRVAGM”, the “soluble fraction (log2)” value was -1.79.

Turning to “HMNLAPLLTEYVQINFRRASEMKTYLEQANLISERGFLLADDQTNILMVRETGASIEEIRRTLNRF”, the “soluble fraction (log2)” value was -1.92. As to “HMNLFKAPMPGLIRTIVVAEGQEVKKGDVILILEAMKMENALKSPADLVVKSIKVQQGQAVEKNQLLIEF”, the “soluble fraction (log2)” value was -2.44. Take “HMNLGNLLKIYRKNSLLTQQQVADALNINRTTYTYYETGKTEPSIDTLHKLIKIFGITYDDLL”: the “soluble fraction (log2)” value was -2.88.

For “HMNLKDINLNVRHYKIIDFVREHGYASIETLTRQFGVSAQTVRRDIIYLDNQAVLKRHHGGVGTLPG”, the “soluble fraction (log2)” value is -1.97.

As to “HMNLPTSGVDALTPAERRVARMAGDGQSNREIAQTLFVTRKTVEIHLTSVYRKLGIASRAELSARL”, the “soluble fraction (log2)” value is -2.68. The result for “HMNLQGIISQKAIVTQTIEPYETGVAKLNGEEWTAMSKDETRIEAGKLVEVVAIEGVKLIVKEVS” reads -0.311; that for “HMNLVELKHAEEFNTLIIQDIGGRMKPAHTLASELVRKVFHNDDFNGIDPRKVFLSIIENSKVWFNVPFI”, 0.0116. For “HMNLYENLATHVKNAIRQGVYQPGDRLPSVRRLSEQHRVSQNTAVSAYRLLESHGWLEARPQSGFFARHP”, the “soluble fraction (log2)” value is -1.42. Regarding “HMNLYERFPIHELWKETFNETLDEEEHITFITSEFKPENIVLGQGFIAAPSKKDAVDWLKVIRTVLIFYDS”, the “soluble fraction (log2)” value is -2.37. For “HMNMANFARIRLILELHDRGMSQDEISRSRHMSRSTITTVLRTARKKGITYAGIRKLDDAALQKLFFPDR”, the “soluble fraction (log2)” value was -4.02.

As for “HMNMDLGHSISKLRTDANLTQEKFAQILNVSRQTVQKWEYGEALPDIHNIIKIAKFFNISLDALVLRS”, the “soluble fraction (log2)” value is -3.02. As for “HMNMIGDVIRNLRTVSSMTQTELGQRMGVIKQTISNWEKNISTPSIDAIVKLSSIFNVPTDYLL”, the “soluble fraction (log2)” value is -1.22. The value for “HMNMMESNLFAVYDNDDIVKTLRQGAMEIDSLIRLMGKSSAEVLEKLTTMELQGIITRSGNIIALNN” was -0.427.

With “HMNMNDIKFGKYLKRVRKKYNFSKEYVANILKVKESLVSDWESGRLTLNDEYMEKLSLFYGVNLYKK”, the “soluble fraction (log2)” value was -1.57.
